Laboratory results as given in the nanobody polyreactivity screen of Harvey et al. (2022).

assay: yeast display, Sf9 membrane polyspecificity reagent, FACS + sequencing; frameworks hold sequencing errors
How it was run: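 Sorting gates, low and high (top ~1%), were placed on anti-HA fluorescence to track expression and on streptavidin fluorescence to track reagent binding. A clone's polyreactivity label is taken from the gate it came out of. The reagent was 10% biotinylated, detergent-solubilized Sf9 membrane, applied for 1 hour at 4 °C to galactose-induced yeast display cells.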

Sequence	polyreactivity (PSR sort gate)
QVQLVESGGGLVQAGGSLRLSCAASGSIFKIYAMGWYRQAPGKERELVARITRRGGRTNYADSVKGRFTISRDNAKNTVYLQMNSLKPEDTAVYYCASLGRRGGDYWGQGTQVTVAS	high polyreactivity
QVQLVESGGGLVQAGGSLRLSCAASGSIFKKYAMGWYRQAPGKERELVAAISSTGGSTKYADSVKGRFTISRDNAKNTVYLQMNSLKPEDTAVYYCAVRYKWPYDYWGQGTQVTVSS	high polyreactivity
QVQLVESGGGLVQAGGSLRLSCAASGSIFKKYAMGWYRQAPGKERELVAAISSTGGSTKYADSVKGRFTISRDNAKNTVYLQMNSLKPEDTAVYYCNAPGLRDYDAEYDYWGQGTQVTVSS	high polyreactivity
QVQLVESGGGLVQAGGSLRLSCAASGSIFKKYAMGWYRQAPGKERELVAAISSVGGTYYADSVKGRFTISRDNAKNTVYLQMNSLKPEDTAVYYWYTDGYVGSIRSGLYIYDYWGQGTQVTVSS	low polyreactivity
QVQLVESGGGLVQAGGSLRLSCAASGSIFKKYAMGWYRQAPGKERELVAAITRGTYYADSVKGRFTISRDNAKNTVYLQMNSLKPEDTAVYYCNREYWGRGYYRVRGEYDYWGQGTQVTVSS	low polyreactivity
QVQLVESGGGLVQAGGSLRLSCAASGSIFKLNAMGWYRQAPGKERELVAAITFSDGSTNYADSVKGRFTISRDNAKNTVYLQMNSLKPEDTAVYYCAAEFYYRTQWYYYWGQGTQVTVSS	high polyreactivity
QVQLVESGGGLVQAGGSLRLSCAASGSIFKLYALGWYRPAPGKERELVAAISLSDGGTYYADSVKGRFTISRDNPKNTVYLQMNSLKPEDTAVYYCNKYYWYPYGRAHDYGYWGQGTQVTVSS	high polyreactivity
QVQLVESGGGLVQAGGSLRLSCAASGSIFKNYAMGWSRQSPGKERELVASITTGASTNYADSVKGRFTISRDNAKNTVYLQMNSLKPEDTAVYYCNADRYYSHYSYYYWGQGTQVTVSS	high polyreactivity
QVQLVESGGGLVQAGGSLRLSCAASGSIFKNYAMGWYRQAPGKERELVASITTGASTNYADSVKGRFTISRDNAKNTVYLQMNSLKPEDTAVYYCAKGGRTFRYFVAPRTFDHGYWGQGTQVTVSS	high polyreactivity
QVQLVESGGGLVQAGGSLRLSCAASGSIFKPYAMGWYRQAPGKERELVAAISSSGGSTYYADSVKGRFTISRDNAKNTVYFQMNSLKPEDTAVYYCNADWYYAGYGYWGQGTQVTVSS	low polyreactivity
QVQLVESGGGLVQAGGSLRLSCAASGSIFKQNAMGWYRQAPGKDRELVASIRASGDRTYYADSVKGRFTISRDNAKNTVYLQMNSLKPEDTAVYYCAARRVRTRGYNYWGQGTQVTVSS	high polyreactivity
QVQLVESGGGLVQAGGSLRLSCAASGSIFKQNAMGWYRQAPGKERELVADITSSGGSTYYADSVKGRFTISRDNAKNTVYLQMNSLKPEDTAVYYCAADGNGVDYDYWGQGTQVTVSS	low polyreactivity
QVQLVESGGGLVQAGGSLRLSCAASGSIFKQYVMGWYRQAPGKEREFVARISKSGGSTYYADSVKGRFTISRDNAKNTVYLQMNSLKPEDTAVYYCAVASKQALQPWYDYWGQGTQVTVSS	high polyreactivity
QVQLVESGGGLVQAGGSLRLSCAASGSIFKRNAMGWYRQAPGKERELVASISSGGSTHYADSVKGRFTISRDNAKNTVYLQMNSLKPEDTAVYYCAADSSWYVLYGSYYRSGLDYWGQGTQVTVSS	low polyreactivity
QVQLVESGGGLVQAGGSLRLSCAASGSIFKRYAMGRYRQAPGKERELVAAISYSGTSTYYADSVKGRFTISRDTAKNTVYLQMNSLKPEDTAVYYCNKVPGYRHYLGYPGRYGYWGQGTQVTVSS	high polyreactivity
QVQLVESGGGLVQAGGSLRLSCAASGSIFKRYAMGWYRQAPGKERELVARISRRGGTYYADSVKGRFTISRDNAKNTVYLQMNSLKPEDTAVYYCNANVIFADNNDRDYWGQGTQVTVSS	low polyreactivity
QVQLVESGGGLVQAGGSLRLSCAASGSIFKRYTMGWYRQAPGKERELVASIRSRAGNTYYADSVKGRFTISRDNAKNTVYLQMNSLKPEDTAVYYCAVSAWGYYRTSYGYWGQGTQVTVSS	high polyreactivity
QVQLVESGGGLVQAGGSLRLSCAASGSIFKSYAMGWYRKAPGKERELVAAITWRSGRTYYADSLKGRFTISRDNAKNTVYLQMNSLKPEDTAVYYCAAELVSVRYLYALHDRDYWGKGTQVTVSS	low polyreactivity
QVQLVESGGGLVQAGGSLRLSCAASGSIFKSYAMGWYRQAPGKERELVAAISWSGTSTYYADSVKGRFTISRDNAKNTVYLQMNSLKPEDTAVYDCAASGDYGEYGYWGQGTQVTVSS	low polyreactivity
QVQLVESGGGLVQAGGSLRLSCAASGSIFKSYAMGWYRQAPGKERELVAAITWRSGRTYYADSVKGRFTISRDNAKNTVYLQMTSLKPEDTAVYYCAADDTSYYIYSYDYWGQGTQVTVSS	low polyreactivity

Sequence	polyreactivity (PSR sort gate)
QVQLVESGGGLVQAGGSLRLSCAASGSIFKTYAMGWYRQAPGKERELVAAISWRGGSTYYADSVKGRFTISRDNAKNTVYLEMNSLKPEDTAVYYCAAGRKFGTRTLWYRYGYWGQGTQVTVSS	high polyreactivity
QVQLVESGGGLVQAGGSLRLSCAASGSIFKVNAMGWYRQAPGKEWELVARTYYADSVKGRFTISRDNAKNTVYLQMNSLKPEDTAVYYCAASRGIYNPYDYWGQGTQVTVSS	low polyreactivity
QVQLVESGGGLVQAGGSLRLSCAASGSIFKVYAMGWYRQAPGKERELVATISGSGGSTYYADSVKGRFTISRDNAKNTVYLQMNSLKPEDTAVYYCAAEVYVPDYFQHKFDVEYEYWGQGTQVTVSS	low polyreactivity
QVQLVESGGGLVQAGGSLRLSCAASGSIFKWNAMGWYRQAPGKEWELVAAITWSGGRTYYADSVKGRFTISRDNAKNTVYLQMNSLKPEDTAVYYCAATQYRSDGWRYDYWGQGTQVTVSS	high polyreactivity
QVQLVESGGGLVQAGGSLRLSCAASGSIFKWYTMGWYRQAPGKERELVAAITWGGGSTYYADSVKGRFTISRDNAKNTVYLQMNSLKPEDTAVYYCNAEYVVADYGYYTIEFDYWGQGTQVTVSS	low polyreactivity
QVQLVESGGGLVQAGGSLRLSCAASGSIFKYNDMGWYRQAPGKERELVAAIRLGGGSTSYADSVKGRFTISRDNAKNTVYLQMNSLKPEDTAVYYCAAEINVGWLGSYDYWGQGTQVTVSS	low polyreactivity
QVQLVESGGGLVQAGGSLRLSCAASGSIFKYYAMGWYRQAPGKERELVAAISRSGTSTYYADSVKGRFTISRDNAKNTVYLQMNSLKPEDTAVYYCNAVGISQFAKYGWRYDYWGQGTQVTVSS	high polyreactivity
QVQLVESGGGLVQAGGSLRLSCAASGSIFKYYAMGWYRQAPGKERELVAAISSGGITNYADSVKGRFTISRDNAKNTVYLQMNSLKPEDTAVYYCAARDYVRLGLYDYDYWGQGTQVTVSS	low polyreactivity
QVQLVESGGGLVQAGGSLRLSCAASGSIFKYYAMGWYRQAPGKERELVAAISSSGGSTYYADSVKWRFTISRDNAKNTVYLQMNSLKPEDTAVYYCNTPYIWKNYDYWGQGTQVTVSS	high polyreactivity
QVQLVESGGGLVQAGGSLRLSCAASGSIFKYYAMGWYRQAPGKERELVAAITSGVSTYADSVKGPFTISRDNAKNTVYLQMNSLKPEDTAVYYCAVRVTGPRGDYWGQGTQVTVSS	low polyreactivity
QVQLVESGGGLVQAGGSLRLSCAASGSIFKYYAMGWYRQAPGKERELVAAITWSGTRTYYADSVKGRFTISRDNAKNTVYLQMNSLKPEDTAVYYCNAPRYLYSAGRFNYWGQGTQVTVSS	high polyreactivity
QVQLVESGGGLVQAGGSLRLSCAASGSIFKYYTMGWYRQAPGKERELVASINGGGSTNYADSVKGRFTISRDNAKNTVYLQMNSLKPEDTAVYYCNARYWWQDGYWGQGTQVTVSS	high polyreactivity
QVQLVESGGGLVQAGGSLRLSCAASGSIFKYYVMGWYRQAPGKEREFVAVISWSGGTTYYADSVKGRFTISRDNAKNTVYLQMNSLKPEDTAVYDCNKDYIYVGVPRYRSINHDYWGQGTQVTVSS	low polyreactivity
QVQLVESGGGLVQAGGSLRLSCAASGSIFKYYVMGWYRQAPGKERELVAAITRGGRTYYADSVKGRFTISRDNAKNTVYLQMNSLKPEDTAVYYCARSLQTTSGIIPYDYWGQGTQVTVSS	high polyreactivity
QVQLVESGGGLVQAGGSLRLSCAASGSIFLDNAMGWYRQAPGKERELVAAISRRGGTTYYADSVKGRFTISRDNAKNTVYLQMNSLKPEDTAVYYCAARYPGGKYYSYTYNYWGQGTQVTVSS	high polyreactivity
QVQLVESGGGLVQAGGSLRLSCAASGSIFLDYAMGWYRQAPGKERELVAAITSGGSTYYADSVKGRFTISRDNAKNTVYLQMNSLKPEDTAVYYCNDEYPQYKAGFYGYDYWGQGTQVTVSS	low polyreactivity
QVQLVESGGGLVQAGGSLRLSCAASGSIFLDYAMGWYRQAPGKERELVAGITISGGSTYYADSVKGRFTISRDNAKNTVYLQMNSLKPEDTAVYYCAKVAPRSSSSQEYYYWGQGTQVTVSS	low polyreactivity
QVQLVESGGGLVQAGGSLRLSCAASGSIFLENTMGWYRQAPGKERELVAAITSSGDSTYADSVKGRFTISRDNAKNTVYLQMNSLKPEDTAVYYCAQYTRDIFAVTFYEGEDYWGQGTQVTVSS	low polyreactivity
QVQLVESGGGLVQAGGSLRLSCAASGSIFLEYTMGWYRQAPGKERELVASISWGGGSTYYADSVKGRFTISRDNAKNTVFLQMNSLKPEDTAVYYCNKVGGDPVRGGYDYWGQGTQVTVSS	low polyreactivity
QVQLVESGGGLVQAGGSLRLSCAASGSIFLGNSMGWYRQAPGKERELVAAISSITGRTYYADSVKGRFTISRDNAKNTVYLQMNSLKPEDTAVYYCNKVKRSFIVNTDDYWGQGTQVTVSS	high polyreactivity
